From paper doi:10.1101/2025.02.13.638205, “Cryo-EM structure of endogenous Plasmodium falciparum Pfs230 and Pfs48/45 fertilization complex” (bioRxiv, 2025)

T1: Pfs48/45, endogenous, from P. falciparum stage V gametocytes (Plasmodium falciparum NF54 (NF54/iGP2 …))
T1 construct: Pfs48/45 of Plasmodium falciparum, three 6-cysteine domains (D1-D3), migrates at about 50 kDa; residues 28-428 fitted in the cryo-EM model; also called P48/45; source: endogenous, P. falciparum NF54/iGP2 Pfs230FL stage V gametocytes; co-purified with Pfs230 (StrepTactin XT, SEC) and in parasite lysate
T1 chain: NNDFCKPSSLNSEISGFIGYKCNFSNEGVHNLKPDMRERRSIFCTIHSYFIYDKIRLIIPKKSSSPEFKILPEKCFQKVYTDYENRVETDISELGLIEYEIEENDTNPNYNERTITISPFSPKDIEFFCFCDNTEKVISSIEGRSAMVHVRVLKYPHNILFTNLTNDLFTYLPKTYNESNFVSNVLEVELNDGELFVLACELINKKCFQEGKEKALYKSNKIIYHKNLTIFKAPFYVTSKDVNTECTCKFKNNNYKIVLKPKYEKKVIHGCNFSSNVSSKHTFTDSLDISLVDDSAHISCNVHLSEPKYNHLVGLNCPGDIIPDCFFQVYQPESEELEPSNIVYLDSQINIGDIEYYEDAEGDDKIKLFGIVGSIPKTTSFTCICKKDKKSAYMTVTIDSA


Experiments:
[1] = molecular target: T1, Pfs48/45, endogenous, from P. …; test: pull-down; conditions: one partner purified
[2] = molecular target: recombinant Pfs230 D11D12 (D2446-T2818) (Plasmodium falciparum 3D7, UniProt P68874); test: BLI; conditions: both partners purified
[3] = molecular target: recombinant Pfs230 D5D6 (T1281-G1549) (Plasmodium falciparum 3D7, UniProt P68874); test: BLI; conditions: both partners purified
recombinant Pfs230 D1D2 = recombinant Pfs230 D1D2 (Plasmodium falciparum 3D7/NF54, UniProt P68874); test: BLI; conditions: both partners purified
[4] = molecular target: Pfs230, endogenous, in fixed NF54/iGP2 stage V gametocytes (Plasmodium falciparum (endogenous in …, UniProt P68874)); test: immunostaining of cells or tissue; conditions: one partner purified
Chain of Pfs230, endogenous, in fixed NF54/iGP2 stage V gametocytes (Plasmodium falciparum (P68874 21-3135): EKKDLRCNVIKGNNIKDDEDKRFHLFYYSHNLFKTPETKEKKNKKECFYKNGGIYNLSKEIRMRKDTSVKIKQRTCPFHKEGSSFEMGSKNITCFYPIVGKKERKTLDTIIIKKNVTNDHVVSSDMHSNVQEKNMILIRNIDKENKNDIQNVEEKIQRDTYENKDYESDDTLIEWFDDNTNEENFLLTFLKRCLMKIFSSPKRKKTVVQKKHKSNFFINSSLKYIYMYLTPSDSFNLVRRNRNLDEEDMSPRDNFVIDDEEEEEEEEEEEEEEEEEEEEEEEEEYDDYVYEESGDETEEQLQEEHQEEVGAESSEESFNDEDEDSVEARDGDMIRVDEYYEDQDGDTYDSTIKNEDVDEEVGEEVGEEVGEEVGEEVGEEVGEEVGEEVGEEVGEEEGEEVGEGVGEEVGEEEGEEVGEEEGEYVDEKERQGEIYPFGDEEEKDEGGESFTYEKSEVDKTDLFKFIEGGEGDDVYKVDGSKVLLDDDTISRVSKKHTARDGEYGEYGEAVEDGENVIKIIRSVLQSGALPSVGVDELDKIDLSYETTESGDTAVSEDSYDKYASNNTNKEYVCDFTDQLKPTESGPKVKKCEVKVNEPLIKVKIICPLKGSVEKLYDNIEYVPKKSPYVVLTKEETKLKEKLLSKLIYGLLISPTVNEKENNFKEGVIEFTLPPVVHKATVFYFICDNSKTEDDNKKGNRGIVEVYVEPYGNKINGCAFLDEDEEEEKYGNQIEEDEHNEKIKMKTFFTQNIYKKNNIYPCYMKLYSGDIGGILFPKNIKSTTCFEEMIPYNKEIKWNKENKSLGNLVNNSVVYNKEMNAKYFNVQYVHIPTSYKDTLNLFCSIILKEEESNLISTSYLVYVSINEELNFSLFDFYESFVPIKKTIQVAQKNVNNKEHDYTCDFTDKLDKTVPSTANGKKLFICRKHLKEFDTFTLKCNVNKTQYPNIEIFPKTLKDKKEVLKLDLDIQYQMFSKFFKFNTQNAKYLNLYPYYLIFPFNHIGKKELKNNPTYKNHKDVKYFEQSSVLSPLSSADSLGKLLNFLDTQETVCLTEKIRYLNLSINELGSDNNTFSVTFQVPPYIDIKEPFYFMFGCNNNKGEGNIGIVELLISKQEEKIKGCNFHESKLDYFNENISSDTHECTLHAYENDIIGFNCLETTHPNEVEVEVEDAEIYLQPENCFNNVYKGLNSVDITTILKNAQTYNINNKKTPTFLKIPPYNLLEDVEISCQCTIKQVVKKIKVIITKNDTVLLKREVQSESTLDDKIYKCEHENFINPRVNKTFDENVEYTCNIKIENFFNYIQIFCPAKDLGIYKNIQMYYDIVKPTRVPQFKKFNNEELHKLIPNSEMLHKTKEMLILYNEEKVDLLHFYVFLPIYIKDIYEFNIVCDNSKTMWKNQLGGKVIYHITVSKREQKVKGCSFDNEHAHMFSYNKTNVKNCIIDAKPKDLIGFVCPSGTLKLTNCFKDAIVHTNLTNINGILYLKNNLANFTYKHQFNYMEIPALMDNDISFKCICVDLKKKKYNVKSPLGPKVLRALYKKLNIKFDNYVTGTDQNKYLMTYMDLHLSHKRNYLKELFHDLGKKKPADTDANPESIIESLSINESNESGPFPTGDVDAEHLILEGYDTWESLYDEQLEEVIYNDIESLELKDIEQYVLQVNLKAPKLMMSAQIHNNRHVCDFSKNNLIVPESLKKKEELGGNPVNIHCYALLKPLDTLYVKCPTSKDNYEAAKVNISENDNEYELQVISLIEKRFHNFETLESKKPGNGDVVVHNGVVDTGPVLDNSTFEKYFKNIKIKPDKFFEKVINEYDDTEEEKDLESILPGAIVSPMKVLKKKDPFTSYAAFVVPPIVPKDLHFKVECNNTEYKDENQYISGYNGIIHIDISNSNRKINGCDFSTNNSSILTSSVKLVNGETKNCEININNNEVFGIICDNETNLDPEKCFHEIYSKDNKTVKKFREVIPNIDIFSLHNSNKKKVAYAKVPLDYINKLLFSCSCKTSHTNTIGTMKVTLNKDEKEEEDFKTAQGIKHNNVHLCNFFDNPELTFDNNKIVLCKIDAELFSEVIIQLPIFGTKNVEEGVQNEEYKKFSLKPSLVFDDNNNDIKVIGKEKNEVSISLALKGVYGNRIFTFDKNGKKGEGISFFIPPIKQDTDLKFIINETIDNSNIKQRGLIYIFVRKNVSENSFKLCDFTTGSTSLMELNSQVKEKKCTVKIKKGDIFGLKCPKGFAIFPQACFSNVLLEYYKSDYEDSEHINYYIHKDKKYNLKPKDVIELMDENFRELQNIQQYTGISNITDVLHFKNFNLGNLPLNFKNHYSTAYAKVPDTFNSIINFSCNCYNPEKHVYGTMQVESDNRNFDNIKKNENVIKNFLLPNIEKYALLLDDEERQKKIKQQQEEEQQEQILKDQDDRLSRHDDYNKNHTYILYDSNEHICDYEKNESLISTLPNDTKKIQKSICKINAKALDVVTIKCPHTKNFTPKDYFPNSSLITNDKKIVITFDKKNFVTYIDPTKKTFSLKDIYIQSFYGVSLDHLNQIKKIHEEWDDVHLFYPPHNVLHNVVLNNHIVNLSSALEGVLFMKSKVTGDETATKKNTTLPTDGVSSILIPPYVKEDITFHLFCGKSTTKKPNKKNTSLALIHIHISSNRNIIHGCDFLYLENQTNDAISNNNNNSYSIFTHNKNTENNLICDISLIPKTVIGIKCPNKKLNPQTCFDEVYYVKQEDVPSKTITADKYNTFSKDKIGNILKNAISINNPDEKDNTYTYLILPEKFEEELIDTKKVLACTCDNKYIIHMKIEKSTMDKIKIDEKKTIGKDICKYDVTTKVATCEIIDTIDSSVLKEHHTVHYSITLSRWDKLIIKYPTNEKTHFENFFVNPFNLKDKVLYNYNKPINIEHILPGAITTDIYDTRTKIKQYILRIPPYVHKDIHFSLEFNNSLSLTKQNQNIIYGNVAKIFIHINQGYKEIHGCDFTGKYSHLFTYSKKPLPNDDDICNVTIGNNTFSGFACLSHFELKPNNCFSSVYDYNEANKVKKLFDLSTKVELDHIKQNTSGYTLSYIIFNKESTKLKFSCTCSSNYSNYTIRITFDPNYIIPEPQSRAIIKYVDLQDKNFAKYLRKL

Chain of recombinant Pfs230 D5D6 (T1281-G1549) (P68874 1281-1549): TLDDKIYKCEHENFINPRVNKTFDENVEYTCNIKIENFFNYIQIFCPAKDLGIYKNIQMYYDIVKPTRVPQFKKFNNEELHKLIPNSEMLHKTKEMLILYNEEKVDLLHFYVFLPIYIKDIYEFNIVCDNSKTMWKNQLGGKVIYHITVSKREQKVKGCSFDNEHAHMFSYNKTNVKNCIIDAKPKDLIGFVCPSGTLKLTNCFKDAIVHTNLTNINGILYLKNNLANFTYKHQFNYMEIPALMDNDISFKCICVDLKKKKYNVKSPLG
Chain of recombinant Pfs230 D11D12 (D2446-T2818) (P68874 2446-2818, one chain of several): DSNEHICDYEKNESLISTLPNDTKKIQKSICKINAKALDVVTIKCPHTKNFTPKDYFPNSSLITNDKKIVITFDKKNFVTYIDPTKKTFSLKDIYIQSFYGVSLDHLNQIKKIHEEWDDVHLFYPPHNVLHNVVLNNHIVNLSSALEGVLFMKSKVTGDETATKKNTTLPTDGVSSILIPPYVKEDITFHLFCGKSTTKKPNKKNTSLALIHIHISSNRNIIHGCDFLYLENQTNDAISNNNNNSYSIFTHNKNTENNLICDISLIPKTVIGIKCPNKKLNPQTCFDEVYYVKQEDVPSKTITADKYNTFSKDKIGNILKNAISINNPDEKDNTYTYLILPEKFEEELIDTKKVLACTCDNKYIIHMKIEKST

| Binder | binding result [1] | binding result [2] | binding result [3] | binding result (recombinant Pfs230 D1D2) | binding result [4] |
| --- | --- | --- | --- | --- | --- |
| anti-Pfs48/45 monoclonal antibody TB31F (antibody, V domains shown) VH: EVQLVQSGGGLVQPGGSLRLSCAASGFTFNNYWMSWVRQAPGKGLEWVSSISNIGGTIYYPDSVKGRFTISRDNSKNTLYLQMNSLRAEDTAVYYCTRDLRMSDYFDYWGQGTMVTVSS VL: NFMLTQPHSVSESPGKTVTISCTRSTGNIGSNYVSWYQQRPGSSPTTVIYRDDQRPSGVPDRFSGSIDRSSNSASLTISGLKTEDEADYYCHSYSTGMYIFGGGTKLTVL | binds | – | – | – | – |
| nanobody W2812 (VHH) VHH: QVQLQESGGGLVQPGGSLRLSCAASGRTFSSYMMAWFRQSQGNERELVAGLTRSGVSAYYADSVKGRFTISRDNAKNTVYLQMNSLKPKDTAVYYCAAASTTYINHIYTNPSNYPHWGPGTQVTVSS | – | no binding (tested: 100 nM) | no binding (tested: 100 nM) | no binding (tested: 100 nM) | binds |
| nanobody W2810 (VHH) VHH: QVQLQESGGGLVQAGGSLRLSCAASGRTFSSYAMGWFHQAPGKEREFVASISWSGGSIRYADSVKGRFTVSRDNAKNTAYLQMNSLKPEDTGVYYCAAGPYSSDYGGFGSWGQGTQVTVSS | – | no binding (tested: 100 nM) | no binding (tested: 100 nM) | no binding (tested: 100 nM) | binds |
| nanobody W2809 (VHH) VHH: QVQLQESGGGLVQAGGSLRLSCAASEHTFRDYAMGWFRQAPGKEREFVAAISWSGSIKYYADSVKGRFTISRDNAKRTQYLQMSSLKPEDTAVYYCAARWPGGGMWYEPPYDYWGQGTQVTVSS | – | no binding | no binding | no binding | – |
